Test results as given in patent US20030170252A1, “Antibody compositions specific for p33QIK and p63Krs1 polypeptides and uses thereof” (priority 2000, published 2003).

B1: caspase-3: Recombinant human Caspase-3 purchased from Alexis Biochemicals (protein)
chain: SGISLDNSYKMDYPEMGLCIIINNKNFHKSTGMTSRSGTDVDAANLRETFRNLKYEVRNKNDLTREEIVELMRDVSKEDHSKRSSFVCVLLSHGEEGIIFGTNGPVDLKKITNFFRGDRCRSLTGKPKLFIIQACRGTELDCGIETDSGVDDDMACHKIPVEADFLYAYSTAPGYYSWRNSKDGSWFIQSLCAMLKQYADKLEFMHILTRVNRKVATEFESFSFDATFHAKKQIPCIVSMLTKELYFYH
B2: Lambda phosphatase: Lambda protein phosphatase purchased from NE BioLabs (protein)
chain: MRYYEKIDGSKYRNIWVVGDLHGCYTNLMNKLDTIGFDNKKDLLISVGDLVDRGAENVECLELITFPWFRAVRGNHEQMMIDGLSERGNVNHWLLNGGGWFFNLDYDKEILAKALAHKADELPLIIELVSKDKKYVICHADYPFDEYEFGKPVDHQQVIWNRERISNSQNGIVKEIKGADTFIFGHTPAVKPLKFANQMYIDTGAVFCGNLTLIQVQGEGA

Key:
[1] = system: p63^Krsl, p35, and p33^QIK; assay: Caspase-3 treatment of Ab-KQ immune complexes, in-gel kinase readout; type: biochemical, mouse; details: 0.2 μg Caspase-3, 37° C., 30 min
Method: Both p63^Krsl and p33^QIK in 10 μg of cytosolic lysates (S20) were immunoprecipitated by Ab-KQ (lanes 2 to 4 and 6 to 8), followed by reatment with 0.2 μg Caspase-3 (C)(lanes 3, 4, 7 and 8) in the presence of 5 μM caspase inhibitor Z-D-CH2-DCB (C+I)(lanes 4 and 8) at 37° C. for 30 min. The kinase activities of p63^Krsl, p35, and p33^QIK in 5 μg of S20 (lanes 1 and 5) and in the immune complexes were determined by the in-gel kinase assay using MBP as a substrate. Bars indicate p63^Krsl p35, and p33^QIK.
(§1) MBP (BRL/GIBCO, Grand Island, N.Y.) was used as a substrate in the assay and the in-gel kinase assay was performed as previously described (Wang et al., 1992). Briefly, 10% SDS-polyacrylamide gel (SDS-PAG) was copolymerized with 0.4 mg/ml MBP. Cellular proteins were resolved in the MBP-immobilized SDS-PAG, followed by rinsing the gel with 20% isopropanol in buffer B (100 mM Tris, pH 8, 5 mM β-mercaptoethanol). The gel was denatured in buffer B supplemented with 6 M guanidine-HCl and renatured with buffer B supplemented with 0.04% Tween 40 (Kameshita and Fujisawa, 1989). Kinase reaction was carried out by incubating the gel with kinase buffer (20 Mm Tris, pH 7.2, 10 mM MgCl2, 15 mM β-glycerolphosphate) supplemented with 50 μM γATP and 50 μCi of [γ-^32P]ATP at 22° C. for 30 min. […] Protein kinases which phosphorylated MBP in the gel were detected by autoradiography of the [γ^32P]-labeled MBP. […]

p33^QIK = assay: Phosphatase treatment of immunoprecipitated p33^QIK, in-gel kinase readout; type: biochemical, mouse; details: immune complexes from quiescent or osmotic-stressed quiescent cells; 0.1 unit PP1, 30° C., 30 min
Method: NIH3T3 cultures were synchronized in quiescent state by serum starvation for 48 hr (G0), followed by treatment with 300 mM NaCl (G0/NaCl) for 2 hr. p33^QIK in 10 μg of cytosolic lysates (S20) were immunoprecipitated by Ab-KQ (IP), followed by incubation of the immune complexes with 0.1 unit of PP1 (Ps) (lanes 2, 3, 5 and 6) in phosphatase buffer (50 mM Tris-HCl, pH 7.0, 0.1 mM EDTA, 5 mM dithiothreitol, 0.01% Brij 35, 2 mM MnCl2) in the presence of 10 mM Na3VO4 and 50 mM NaF (Ps+I)(lanes 3 and 6) at 30° C. for 30 min. The kinase activity of p33^QIK in the immune complexes was determined by the in-gel kinase assay using MBP as a substrate. Bar indicates p33^QIK.
as §1, with “1989).” for “1989). Kinase reaction was carried out by incubating the gel with kinase buffer (20 Mm Tris, pH 7.2, 10 mM MgCl2, 15 mM β-glycerolphosphate) supplemented with 50 μM γATP and 50 μCi of [γ-^32P]ATP at 22° C. for 30 min.”

Molecule | kinase activities of p63^Krsl, p35 and p33^QIK in immune complexes ([1]; immune complexes from STSP-treated cells) | kinase activity of p33^QIK in immune complexes ([1]; p33^QIK isolated from osmotic-stressed quiescent or growing cultures) | kinase activity of activated p33^QIK after phosphatase treatment (p33^QIK)
B1 | both the kinase activities of p63^Krsl and p35 decreased in correlation with an increased p33^QIK activity | no change was detected in the kinase activity of p33^QIK | 
B2 |  |  | A similar result was obtained
